T1: GIP Receptor (Homo sapiens, UniProt P48546)
T1 construct: host or cells: HEK293T
T1 sequence (P48546 22-466): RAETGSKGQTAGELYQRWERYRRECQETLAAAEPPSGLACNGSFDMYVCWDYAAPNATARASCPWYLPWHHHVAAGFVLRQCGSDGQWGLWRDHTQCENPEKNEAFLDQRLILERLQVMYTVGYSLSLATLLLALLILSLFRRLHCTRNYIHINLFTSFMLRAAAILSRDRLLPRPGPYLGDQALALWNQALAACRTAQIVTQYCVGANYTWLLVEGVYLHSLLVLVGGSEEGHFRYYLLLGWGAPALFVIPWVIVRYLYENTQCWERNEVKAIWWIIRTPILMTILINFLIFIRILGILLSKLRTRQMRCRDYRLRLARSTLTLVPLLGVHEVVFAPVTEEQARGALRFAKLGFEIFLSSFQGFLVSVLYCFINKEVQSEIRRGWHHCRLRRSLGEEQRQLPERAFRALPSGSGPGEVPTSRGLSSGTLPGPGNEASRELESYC


What was measured:
[1] = target: GIP (gastric inhibitory polypeptide) receptor (UniProt P48546); assay: cell-based or functional assay
GIP Receptor = target: T1, GIP Receptor; assay: GIP receptor-mediated bioluminescence in HEK293T cells with chimeric promiscuous G protein (FIG. 5, Table II); format: cell-based; settings: for Max signal with GIP (RLU × 10^−5) / EC50: HEK293T cells, GIP Receptor + promiscuous G protein; for EC50: luminescence vs GIP concentration; for % GPCR/total: signal induced by maximal GIP (1 μM) as percentage of signal induced by Triton X-100 with 1 mM Ca^2+; for Signal: background with GIP: signal induced by maximal GIP (1 μM) divided by signal induced by buffer alone
Method: However, coexpression of GIP receptor with a chimeric G protein containing sequences from Gαs and Gαq enable the GIP receptor to stimulate calcium flux.
The results of the dose response curve to varying concentrations of GIP with a subset of the photoproteins are summarized in FIG. 5.
(§1) Signal to background ratio was calculated as the signal induced by maximal GIP (1 μM) divided by the signal induced by buffer alone. The EC50 value for calcium was determined as described above for FIG. 2 for mitochondrially targeted photoproteins transfected into HEK293T cells in the absence of a cotransfected GPCR or G protein. Affinity for calcium was correlated with the properties of the amino acid side chain at residue 168 of Clytin.
The EC50 value for receptor-mediated calcium flux induced by the ligand was determined by plotting luminescence (Y-axis) versus ligand concentration applied to the cells (X-axis), and applying a sigmoidal dose-response curve-fitting algorithm (GraphPad Prism). GPCR-mediated signals of the various modified forms of Clytin having an amino acid substitution at position 168 were also related to the nature of the side chain. In addition, the subcellular location of the photoproteins (cytosolic vs mitochondrial) appeared to have an effect on GPCR-mediated signals. […] All of the other mitochondrially targeted mutants except for Clytin K168R and wild-type Clytin yielded results that were in the range of those observed for wt-Aequorin.

[2] = Calcium EC50 of mitochondrially targeted photoproteins in HEK293T cells without cotransfected GPCR or G protein (Table II); format: cell-based; settings: no cotransfected GPCR or G protein
Source text: In an exemplary experiment, HEK293T cells (ATCC-CRL-11268) were transiently co-transfected with 2 μgs of each of pcDNA3.1-H1 (containing the cDNA encoding the H1 histamine receptor) and pcDNA3.1 containing the cDNAs encoding wild type mitochondrial Clytin (referred to as mt-Clytin), modified mitochondrial Clytin having a lysine to aspartic acid mutation at position 168 (referred to as mt-Clytin K168D), modified mitochondrial Clytin having a lysine to glutamic acid mutation at position 168 (referred to as mt-Clytin K168E), wild-type mitochondrial Obelin (referred to as mt-Obelin) or wild type mitochondrial Aequorin (referred to as mt-Aequorin) using the Targefect-293 reagent (TARGETING SYSTEMS). 48 hours later, the cells were detached using Accutase (MILLIPORE), centrifuged, and resuspended in […] in FreeStyle293 media (INVITROGEN), for incubation for 3-4 hours at room temperature in the dark. After incubation, the cells were centrifuged and resuspended in HBSS/HEPES buffer without Ca^2+ at a density of 1×10^6 cells/ml. Next, 100 μl/well of cell suspension for each transfection were added by the use of a Victor2 luminometer plate reader (WALLAC, […]), to a 96-well plate containing 50 μL/well Triton X-100 in MOPS/KCl buffer containing 10 mM EGTA and a series of Ca^2+ concentrations, such that free calcium concentrations ranged from 17 nM to 39.6 μM, followed by for measurement of total bioluminescence at 20 seconds.
as §1

H1 histamine receptor = target: T2, H1 histamine receptor (Homo sapiens, UniProt P35367); assay: GPCR-mediated versus total bioluminescence in U-2OS cells (FIG. 4); format: cell-based; settings: 10 μM histamine vs Triton X-100 with 1 mM calcium
T2 construct: expressed in transfected cells; host or cells: U-2OS
T2 sequence (P35367 whole entry): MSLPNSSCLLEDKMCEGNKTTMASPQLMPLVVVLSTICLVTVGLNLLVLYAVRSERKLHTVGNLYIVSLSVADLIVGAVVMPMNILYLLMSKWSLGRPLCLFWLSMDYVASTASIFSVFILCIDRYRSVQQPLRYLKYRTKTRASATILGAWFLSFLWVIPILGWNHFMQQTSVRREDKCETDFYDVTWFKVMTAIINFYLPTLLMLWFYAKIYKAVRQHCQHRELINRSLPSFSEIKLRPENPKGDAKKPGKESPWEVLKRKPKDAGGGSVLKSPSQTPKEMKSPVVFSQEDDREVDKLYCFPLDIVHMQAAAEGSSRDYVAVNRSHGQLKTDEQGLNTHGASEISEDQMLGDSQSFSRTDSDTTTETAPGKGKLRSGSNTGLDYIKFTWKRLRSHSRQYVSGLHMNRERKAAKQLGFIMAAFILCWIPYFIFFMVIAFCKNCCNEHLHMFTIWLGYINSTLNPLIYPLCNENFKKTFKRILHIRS
Method: In another experiment, the ability of the various photoproteins to detect calcium flux in live cells was assessed by adding varying concentrations of histamine to cells in order to activate the H1 histamine receptor followed by measurement of bioluminescence of the various photoproteins. U-2OS cells were transfected with a cDNA encoding H1 histamine receptor along with a cDNA encoding either a wild-type photoprotein or a modified photoprotein according to the invention, as described above in Example 2, except that Lipofectamine-2000 (INVITROGEN) was used as the transfection reagent. On the second day, the cells were trypsinized, counted, and plated in a white tissue-culture treated 96-well plate (COSTAR) at a density of about 50,000 cells/well in growth media consisting of DMEM containing 10% fetal bovine serum, non-essential amino acids, HEPES and penicillin/streptomycin. On the third day, the medium was removed and cells were washed once with 200 μl/well of HBSS/HEPES (containing Ca^2+). Cells were subsequently incubated with 5 μM coelenterazine in HBSS/HEPES (containing Ca^2+) in a volume of 200 μl/well, for 3-4 hours at room temperature in the dark. After incubation, the coelenterazine solution was removed and cells were washed and replaced with HBSS/HEPES buffer containing both Ca^2+ and Mg^2+. 50 μl/well of histamine at varying concentrations in HBSS/HEPES containing both Ca^2+ and Mg^2+ was added to the cells and total bioluminescence was measured at 20 seconds using a Victor2 luminometer.
In an exemplary experiment, U-2OS cells were transfected, plated and loaded with coelenterazine as described in Example 3. Luminescence induced by buffer alone or by 10 μM histamine was measured also as described in Example 3. Additionally, luminescence induced by addition of Triton X-100 in the presence of 1 mM calcium was also determined in order to assess the total amount of active photoprotein detectable using saturating calcium concentrations in cells.

| Molecule | Max signal with GIP (RLU × 10^−5) (GIP Receptor) | EC50 (GIP Receptor) | % GPCR/total (GIP Receptor) | Signal: background with GIP (GIP Receptor) | EC50 [2] | further results |
| --- | --- | --- | --- | --- | --- | --- |
| GIP (gastric inhibitory polypeptide) ligand (from UniProt P09681 52-93) |  |  |  |  |  | EC50 for GIP (nM); receptor-mediated calcium flux luminescence in HEK293T cells, reporter Cyto-aequorin [1]: 6.67 nM; EC50 for GIP (nM); receptor-mediated calcium flux luminescence in HEK293T cells, reporter Cyto-clytin K168D [1]: 4.01 nM; EC50 for GIP (nM); receptor-mediated calcium flux luminescence in HEK293T cells, reporter Cyto-clytin K168E [1]: 7.9 nM; EC50 for GIP (nM); receptor-mediated calcium flux luminescence in HEK293T cells, reporter Cyto-clytin wt [1]: 9.67 nM; EC50 for GIP (nM); receptor-mediated calcium flux luminescence in HEK293T cells, reporter Cyto-obelin [1]: 9.86 nM; EC50 for GIP (nM); receptor-mediated calcium flux luminescence in HEK293T cells, reporter Mt-aequorin [1]: 11.3 nM; EC50 for GIP (nM); receptor-mediated calcium flux luminescence in HEK293T cells, reporter Mt-clytin K168D [1]: 9.1 nM; EC50 for GIP (nM); receptor-mediated calcium flux luminescence in HEK293T cells, reporter Mt-clytin K168E [1]: 21.6 nM; EC50 for GIP (nM); receptor-mediated calcium flux luminescence in HEK293T cells, reporter Mt-clytin K168G [1]: 15.1 nM; EC50 for GIP (nM); receptor-mediated calcium flux luminescence in HEK293T cells, reporter Mt-clytin K168H [1]: 19.2 nM; EC50 for GIP (nM); receptor-mediated calcium flux luminescence in HEK293T cells, reporter Mt-clytin K168N [1]: 21 nM; EC50 for GIP (nM); receptor-mediated calcium flux luminescence in HEK293T cells, reporter Mt-clytin K168Q [1]: 17.4 nM; EC50 for GIP (nM); receptor-mediated calcium flux luminescence in HEK293T cells, reporter Mt-clytin K168R [1]: 29.1 nM; EC50 for GIP (nM); receptor-mediated calcium flux luminescence in HEK293T cells, reporter Mt-clytin K168S [1]: 15.4 nM; EC50 for GIP (nM); receptor-mediated calcium flux luminescence in HEK293T cells, reporter Mt-clytin K168T [1]: 13.4 nM; EC50 for GIP (nM); receptor-mediated calcium flux luminescence in HEK293T cells, reporter Mt-clytin K168V [1]: 16.8 nM; EC50 for GIP (nM); receptor-mediated calcium flux luminescence in HEK293T cells, reporter Mt-clytin K168Y [1]: 16.4 nM; EC50 for GIP (nM); receptor-mediated calcium flux luminescence in HEK293T cells, reporter Mt-clytin wt [1]: 12.9 nM; EC50 for GIP (nM); receptor-mediated calcium flux luminescence in HEK293T cells, reporter Mt-obelin [1]: 13.7 nM |
| Mt-obelin: Mitochondrial Wild-type Obelin (mt-Obelin), SEQ ID NO:7 (protein, listed as Obelia longissima) MSVLTPLLLRGLTGSARRLPVPRAKIHSLPPEGKLMSSKYAVKLKTDFDNPRWIKRHKHMFDFLDINGNGKITLDEIVSKASDDICAKLEATPEQTKRHQVCVEAFFRGCGMEYGKEIAFPQFLDGWKQLATSELKKWARNEPTLIREWGDAVFDIFDKDGSGTITLDEWKAYGKISGISPSQEDCEATFRHCDLDNSGDLDVDEMTRQHLGFWYTLDPEADGLYGNGVP | 3.66 RLU × 10^−5 | 13.7 nM | 116% | 172.5 | 373 nM |  |
| Cyto-clytin wt: Wild type Clytin (wt-Clytin) amino acid sequence, SEQ ID NO:1; cytosolic (protein, listed as Clytia gregaria) MADTASKYAVKLRPNFDNPKWVNRHKFMFNFLDINGDGKITLDEIVSKASDDICAKLGATPEQTKRHQDAVEAFFKKIGMDYGKEVEFPAFVDGWKELANYDLKLWSQNKKSLIRDWGEAVFDIFDKDGSGSISLDEWKAYGRISGICSSDEDAEKTFKHCDLDNSGKLDVDEMTRQHLGFWYTLDPNADGLYGNFVP | 0.2 RLU × 10^−5 | 9.67 nM | 0.3% | 7.0 |  | GPCR-mediated signal as % of the total signal (H1 histamine receptor): ~3% |
| Mt-clytin K168V: Mitochondrial K168V modified Clytin, SEQ ID NO:26 (protein) MSVLTPLLLRGLTGSARRLPVPRAKIHSLPPEGKLRPNFDNPKWVNRHKFMFNFLDINGDGKITLDEIVSKASDDICAKLGATPEQTKRHQDAVEAFFKKIGMDYGKEVEFPAFVDGWKELANYDLKLWSQNKKSLIRDWGEAVFDIFDKDGSGSISLDEWKAYGRISGICSSDEDAEKTFKHCDLDNSGVLDVDEMTRQHLGFWYTLDPNADGLYGNFVP | 3.60 RLU × 10^−5 | 16.8 nM | 18.5% | 158.0 | 389 nM |  |
| Mt-clytin K168H: Mitochondrial K168H modified Clytin, SEQ ID NO:14 (protein) MSVLTPLLLRGLTGSARRLPVPRAKIHSLPPEGKLRPNFDNPKWVNRHKFMFNFLDINGDGKITLDEIVSKASDDICAKLGATPEQTKRHQDAVEAFFKKIGMDYGKEVEFPAFVDGWKELANYDLKLWSQNKKSLIRDWGEAVFDIFDKDGSGSISLDEWKAYGRISGICSSDEDAEKTFKHCDLDNSGHLDVDEMTRQHLGFWYTLDPNADGLYGNFVP | 4.98 RLU × 10^−5 | 19.2 nM | 14.9% | 148.3 | 459 nM |  |
| Mt-clytin K168R: Mitochondrial K168R modified Clytin, SEQ ID NO:30 (protein) MSVLTPLLLRGLTGSARRLPVPRAKIHSLPPEGKLRPNFDNPKWVNRHKFMFNFLDINGDGKITLDEIVSKASDDICAKLGATPEQTKRHQDAVEAFFKKIGMDYGKEVEFPAFVDGWKELANYDLKLWSQNKKSLIRDWGEAVFDIFDKDGSGSISLDEWKAYGRISGICSSDEDAEKTFKHCDLDNSGRLDVDEMTRQHLGFWYTLDPNADGLYGNFVP | 1.89 RLU × 10^−5 | 29.1 nM | 3.3% | 86.8 | 581 nM |  |
| Mt-clytin K168Y: Mitochondrial K168Y modified Clytin, SEQ ID NO:28 (protein) MSVLTPLLLRGLTGSARRLPVPRAKIHSLPPEGKLRPNFDNPKWVNRHKFMFNFLDINGDGKITLDEIVSKASDDICAKLGATPEQTKRHQDAVEAFFKKIGMDYGKEVEFPAFVDGWKELANYDLKLWSQNKKSLIRDWGEAVFDIFDKDGSGSISLDEWKAYGRISGICSSDEDAEKTFKHCDLDNSGYLDVDEMTRQHLGFWYTLDPNADGLYGNFVP | 2.89 RLU × 10^−5 | 16.4 nM | 18.5% | 112.8 | 284 nM |  |
